In paper doi:10.1101/2024.09.16.613172:

Columns and labels:
Assay in all cases: ITC
[1] = biological target: FAST-PETase-CelK (not stated | Clostridium thermocellum)
[2] = biological target: ICCG-ScaA (not stated | Ruminococcus flavefaciens)
SH3L-optiMHETase = biological target: SH3L-optiMHETase
[3] = biological target: MHETase-CelF (not stated | Clostridium cellulolyticum) (UniProt P37698)

| Substance | Kd [1] | Kd [2] | Kd (SH3L-optiMHETase) | Kd [3] |
| --- | --- | --- | --- | --- |
| CipA-CBM-SH3D-ScaB (Scaf.4) | 6.44 nM | 5.25 nM | 3.53 nM |  |
| CipA-CBM-SH3D (Scaf.3) |  |  | 12.6 nM |  |
| CipA-CBM-CipC (Scaf.2) | 19.1 nM |  |  | 1000 nM |
